B1: human recombinant MT-SP1 (R&D Systems, catalog No: 3946-SEB) (protein)
chain: VVGGTDADEGEWPWQVSLHALGQGHICGASLISPNWLVSAAHCYIDDRGFRYSDPTQWTAFLGLHDQSQRSAPGVQERRLKRIISHPFFNDFTFDYDIALLELEKPAEYSSMVRPICLPDASHVFPAGKAIWVTGWGHTQYGGTGALILQKGEIRVINQTTCENLLPQQITPRMMCVGFLSGGVDSCQGDSGGPLSSVEADGRIFQAGVVSWGDGCAQRNKPGVYTRLPLFRDWIKENTGV
B2: human recombinant MMP2 (R&D Systems, catalog No: 902-MP) (protein)
chain: YNFFPRKPKWDKNQITYRIIGYTPDLDPETVDDAFARAFQVWSDVTPLRFSRIHDGEADIMINFGRWEHGDGYPFDGKDGLLAHAFAPGTGVGGDSHFDDDELWTLGEGQVVRVKYGNADGEYCKFPFLFNGKEYNSCTDTGRSDGFLWCSTTYNFEKDGKYGFCPHEALFTMGGNAEGQPCKFPFRFQGTSYDSCTTEGRTDGYRWCGTTEDYDRDKKYGFCPETAMSTVGGNSEGAPCVFPFTFLGNKYESCTSAGRSDGKMWCATTANYDDDRKWGFCPDQGYSLFLVAAHEFGHAMGLEHSQDPGALMAPIYTYTKNFRLSQDDIKGIQELYGASPDIDLGTGPTPTLGPVTPEICKQDIVFDGIAQIRGEIFFFKDRFIWRTVTPRDKPMGPLLVATFWPELPEKIDAVYEAPQEEKAVFFAGNEYWIYSASTLERGYPKPLTSLGLPPDVQRVDAAFNWSKNKKTYIFAGDKFWRYNEVKKKMDPGFPKLIADAWNAIPDNLDAVVDLQGGGHSYFFKGAYYLKLENQSLKSVKFGSIKSDWLGC

Assays:
[1] = target: internally quenched peptide probe with CM APMGLKH (SEQ ID NO: 7)
[2] = target: internally quenched peptide probe with CM PMGLK (SEQ ID NO: 64)
[3] = target: internally quenched peptide probe with CM PMGLKS (SEQ ID NO: 5)
[4] = target: internally quenched peptide probe with CM PWGLRS (SEQ ID NO: 181)
[5] = target: internally quenched peptide probe with CM RSPWGL (SEQ ID NO: 182)
[6] = target: internally quenched peptide probe with CM 7041 (PWGL, SEQ ID NO: 100)
[7] = target: internally quenched peptide probe with CM 7047 (PYGL, SEQ ID NO: 103)
[8] = target: internally quenched peptide probe with CM 7049 (PFGL, SEQ ID NO: 104)
[9] = target: internally quenched peptide probe with CM 7050 (PRGL, SEQ ID NO: 105)
[10] = target: internally quenched peptide probe with CM 7051 (PMGL, SEQ ID NO: 106)
[11] = target: internally quenched peptide probe with CM 7052 (PLGL, SEQ ID NO: 107)
[12] = target: internally quenched peptide probe with CM 7053 (PQGL, SEQ ID NO: 9)
[13] = target: internally quenched peptide probe with CM 7054 (PKGL, SEQ ID NO: 108)
[14] = target: internally quenched peptide probe with CM 7055 (PHGL, SEQ ID NO: 10)
[15] = target: internally quenched peptide probe with CM 7056 (PEGL, SEQ ID NO: 11)

Row | Protein | Probe Cleavage (kcat/KM) [1] [M⁻¹ s⁻¹] | Probe Cleavage (pM/s) [1] [pM/s] | Probe Cleavage (kcat/KM) [2] [M⁻¹ s⁻¹] | Probe Cleavage (pM/s) [2] [pM/s] | Probe Cleavage (kcat/KM) [3] [M⁻¹ s⁻¹] | Probe Cleavage (pM/s) [3] [pM/s] | Probe Cleavage (kcat/KM) [4] [M⁻¹ s⁻¹] | Probe Cleavage (pM/s) [4] [pM/s] | Probe Cleavage (kcat/KM) [5] [M⁻¹ s⁻¹] | Probe Cleavage (pM/s) [5] [pM/s] | further results
1 | B1 | 77000 | 3330 | 1600 | 46.1 | 320000 | 14100 | 31000 | 1230 | 48000 | 2390 | 
2 | B2 | 2.7e+06 | 81700 | 180000 | 4690 | 8.5e+06 | 119000 | 140000 | 3800 | 260000 | 11700 | stated: cleaved (kcat/Km, M-1s-1, bar on a log axis) [6]: PWGL, MMP2 bar ends between 1x10^3 and 1x10^4; kcat/KM (M^-1 s^-1) [7]: greater than 5×10^2 M^-1 s^-1; stated: cleaved (kcat/Km, M-1s-1, bar on a log axis) [7]: PYGL, MMP2 bar ends between 1x10^3 and 1x10^4; kcat/KM (M^-1 s^-1) [8]: greater than 5×10^2 M^-1 s^-1; stated: cleaved (kcat/Km, M-1s-1, bar on a log axis) [8]: PFGL, MMP2 bar ends between 1x10^3 and 1x10^4; stated: cleaved (kcat/Km, M-1s-1, bar on a log axis) [9]: PRGL, MMP2 bar ends between 1x10^4 and 1x10^5; the highest MMP2 bar of the ten peptide probes; stated: cleaved (kcat/Km, M-1s-1, bar on a log axis) [10]: PMGL, MMP2 bar ends between 1x10^4 and 1x10^5; stated: cleaved (kcat/Km, M-1s-1, bar on a log axis) [11]: PLGL, MMP2 bar ends between 1x10^4 and 1x10^5; stated: cleaved (kcat/Km, M-1s-1, bar on a log axis) [12]: PQGL, MMP2 bar ends between 1x10^4 and 1x10^5; stated: cleaved (kcat/Km, M-1s-1, bar on a log axis) [13]: PKGL, MMP2 bar ends between 1x10^4 and 1x10^5; stated: cleaved (kcat/Km, M-1s-1, bar on a log axis) [14]: PHGL, MMP2 bar ends just above the 1x10^4 tick; kcat/KM (M^-1 s^-1) [15]: greater than 5×10^2 M^-1 s^-1; stated: cleaved (kcat/Km, M-1s-1, bar on a log axis) [15]: PEGL, MMP2 bar ends between 1x10^3 and 1x10^4

From US20260042849
